Source: patent US20050079613A1, “Downregulation of cell surface glycoproteins by a family of human ubiquitin ligases” (Oregon Health & Science University, priority 2002, published 2005)

Tests used:
Format in all cases: cell-based, human
HLA-A2.1 [1] = assay: Pulse-chase of HLA-A2.1 maturation and turnover in transfected HeLa cells; settings: HeLa cells co-transfected with HLA-A2.1 and MARCH-IV, chase up to 8 hours
Procedure: Metabolic labeling, immunoprecipitation and Western blotting. HeLa cells were grown to 80% confluency in 100 mm tissue culture dishes and transfected as above. Cells were incubated in serum-free and methionine-free medium for 30 minutes, and metabolically labeled with ^35S-cysteine/^35S-methionine (250 μCi, Amersham) for the indicated time. After labeling, cells were washed twice with PBS and either lysed immediately in PBS containing 1% Triton X-100 and protease inhibitors (Roche, Indianapolis, Ind.), or the label was chased with excess (2 mM) unlabeled cysteine and methionine in the presence or absence of specific inhibitors for the indicated time. The cell lysates were precleared with protein A/G agarose beads and incubated with 3 μg of antibody for one hour and followed by two hours incubation with protein A/G beads. Immunoprecipated proteins were washed five times with 0.1% Triton X-100 in PBS. All samples were boiled in SDS buffer and analyzed by SDS-PAGE gel electrophoresis. Where indicated, samples were treated with Endoglycosidase H (Roche) according to manufacturer's instructions. Briefly, samples were initially denatured at 100° C. in 40 μl of 0.3% SDS, 150 mM 2-mercaptoethanol, 50 mM sodium acetate, pH 5.5 and incubated with 4 milli-Units of Endo H overnight at 37° C. All samples were boiled in SDS buffer and analyzed by SDS-PAGE gel electrophoresis. […]

CD4 = assay: Surface expression of co-transfected CD4 on HeLa cells, flow cytometry
Procedure: (§1) Flow cytometry. Cells were removed from tissue culture dishes with 0.05% Trypsin-EDTA (Invitrogen), washed with ice-cold PBS, and incubated with appropriate antibody for 30 minutes at 4° C. The cells were washed with ice-cold PBS and either resuspended in ice-cold PBS or incubated with PE-conjugated anti-mouse secondary antibody (DAKO) and washed again before analysis with a BD Biosciences (San Jose, Calif.) FACScalibur flow cytometer.
The ability to downregulate MHC I is common to KSHV-K3, KSHV-K5, MHV68-K3 and MV-M153R (Coscoy and Ganem, 2000, supra; Guerin et al., 2002, supra; Ishido et al., 2000b supra; Stevenson et al., 2000, supra). Additional substrates are ICAM-1 and B7.2 (but not B7.1) for KSHV-K5, as well as CD95 and CD4 for M153R (Coscoy and Ganem, 2001, supra; Guerin et al., 2002, supra; Ishido et al., 2000a, supra; Mansouri et al., 2003, supra). Since only low copy numbers were detected in HeLa cells for transcripts corresponding to each of the MARCH-proteins (FIG. 7C, and data not shown), HeLa cells were transfected with expression plasmids for MARCH-I, II, III, IV, V and VIII. Surface expression of selected glycoproteins was monitored upon transfection. […] Surface expression of the respective markers was analyzed by flow cytometry. […]

HLA-A2.1 [2] = assay: Surface expression of co-transfected HLA-A2.1 constructs on HeLa cells, flow cytometry
Procedure: as §1
(§2) The ability to downregulate MHC I is common to KSHV-K3, KSHV-K5, MHV68-K3 and MV-M153R (Coscoy and Ganem, 2000, supra; Guerin et al., 2002, supra; Ishido et al., 2000b supra; Stevenson et al., 2000, supra). Additional substrates are ICAM-1 and B7.2 (but not B7.1) for KSHV-K5, as well as CD95 and CD4 for M153R (Coscoy and Ganem, 2001, supra; Guerin et al., 2002, supra; Ishido et al., 2000a, supra; Mansouri et al., 2003, supra). Since only low copy numbers were detected in HeLa cells for transcripts corresponding to each of the MARCH-proteins (FIG. 7C, and data not shown), HeLa cells were transfected with expression plasmids for MARCH-I, II, III, IV, V and VIII. Surface expression of selected glycoproteins was monitored upon transfection. The following known substrates for viral K3-family members were tested: Fas (CD95) and HLA class I (MHC I), both of which are endogenously expressed in HeLa cells, as well as transfected HLA-A2.1 or CD4. […] Surface expression of the respective markers was analyzed by flow cytometry. GFP was used to identify transfected cells.
The most likely targets for ubiquitination on transmembrane glycoproteins are lysines in the cytoplasmic tail. To examine the role of lysines for MHC I and CD4 downregulation by MARCH-IV, a panel of constructs derived from the human MHC I molecule HLA-A2.1 and a lysine-deleted version of CD4 (Mansouri et al., 2003, supra) were used. In addition to MARCH-IV, MARCH-VIII was included in this analysis since it reduced HLA-A2.1 surface expression (FIG. 10A). […] To rule out the possibility that these mutations changed the target molecules in such a way that they are no longer recognized by MARCH-IV or VIII, a lysine residue into a HA-tag at the carboxyterminal end of HLA-A2.1 was introduced.

HLA class I (MHC I) = assay: Surface expression of endogenous MHC I on transfected HeLa cells, flow cytometry
Procedure: as §1, §2
With regards to whether MHC I downregulation by MARCH-IV was only observed at very high expression levels, since the viral immune evasion genes seem to be dedicated to MHC I downregulation, MHC I expression was compared at different expression levels of MARCH-IV or KSHV-K5 by taking advantage of the tetracycline-regulatable system to partially express either protein (Gossen, M. and H. Bujard, Proc. Natl. Acad. Sci. USA 89:5547-5551, 1992). Tet-off HeLa cells were transfected with either MARCH-IV or with KSHV-K5 in the presence of increasing amounts of tetracycline to shut off transcription. […]

MHC I = MHC I uptake assay in HeLa cells; settings: transfected HeLa cells, 37° C. for 120 minutes
Procedure: Uptake Assay. Uptake of MHC I was measured as previously described (Ishido et al., 2000b, supra). In short, HeLa cells were transfected with MARCH-IV. Twenty four hours post-transfection cells were washed and an anti-MHC I antibody allowed to bind at 4° C. Cells were then either fixed immediately or transferred to 37° C. for 120 minutes to allow uptake of antibody bound glycoproteins. Antibody bound to glycoprotein was visualized using an Alexaflour:594-conjugated secondary antibody.
The observed downregulation of MHC I and CD4 by MARCH-IV permitted the study of the molecular mechanism by which MARCH-proteins reduce glycoprotein levels. […] The only known exception is MHV68-K3 which mediates proteasomal degradation of MHC I prior to its exit from the ER (Boname and Stevenson, 2001, supra). To study if MHC I was internalized by MARCH-IV, the recycling of MHC I in MARCH-IV transfected and non-transfected cells over the course of 2 hours was compared. MHC I on MARCH-IV transfected or non-transfected cells was labeled with anti-MHC I antibody at 4° C.

B1: MARCH-IV: human membrane-associated RING-CH ubiquitin ligase, SEQ ID NOS:45 and 57; construct used lacks the first 63 amino-acids (protein)
chain: WYCYGLCAPAPQMLRHQGLLKCRCRMLFNDLKVFLLRRPPQAPLPMHGDPQPPGLAANNTLPALGAGGWAGWRGPREVVGREPPPVPPPPPLPPSSVEDDWGGPATEPPASLLSSASSDDFCKEKTEDRYSLGSSLDSGMRTPLCRICFQGPEQGELLSPCRCDGSVKCTHQPCLIKWISERGCWSCELCYYKYHVIAISTKNPLQWQAISLTVIEKVQVAAAILGSLFLIASISWLIWSTFSPSARWQRQDLLFQICYGMYGFMDVVCIGLIIHEGPSVYRIFKRWQAVNQQWKVLNYDKTKDLEDQKAGGRTNPRTSSSTQANIPSSEEETAGTPAPEQGPAQAAGHPSGPLSHHHCAYTILHILSHLRPHEQRSPPGSSRELVMRVTTV
HLA-A2.1 [1]
  fate of HLA-A2.1 in pulse-chase: exits the ER but is degraded
CD4; HeLa cells co-transfected with CD4 and MARCH plasmid
  surface expression of transfected CD4: reduced the surface expression
CD4; HeLa cells, lysine-deleted CD4
  downregulation of CD4 with lysines removed from the cytoplasmic tail: resistance
HLA-A2.1 [2]; HeLa cells
  downregulation of HLA-A2.1 with a lysine re-introduced into the C-terminal HA-tag: restored downregulation
HLA-A2.1 [2]; HeLa cells co-transfected with HLA-A2.1 and MARCH plasmid
  surface expression of transfected HLA-A2.1: reduced the surface expression
HLA-A2.1 [2]; HeLa cells, lysine-less HLA-A2.1 construct
  downregulation of HLA-A2.1 with lysines removed from the tail: resistant
HLA class I (MHC I); HeLa cells transfected with MARCH plasmid and GFP, 24 h post-transfection
  surface expression of MHC I: significantly downregulated
HLA class I (MHC I); Tet-off HeLa cells, increasing amounts of tetracycline, below the detectable level of RING-CH protein expression
  MHC I downregulation at tetracycline-regulated expression levels: partial MHC I downregulation
MHC I
  internalization (uptake) of antibody-labeled MHC I: rapid internalization
